The assay concerns the target AUR1-mRFP (A. thaliana) (UniProt Q9M077). The assay is described as follows: FRET or BRET. In general terms: BRET reads energy transfer from a luciferase to a nearby fluorophore.
Chain of UniProt Q9M077 (Q9M077 whole entry): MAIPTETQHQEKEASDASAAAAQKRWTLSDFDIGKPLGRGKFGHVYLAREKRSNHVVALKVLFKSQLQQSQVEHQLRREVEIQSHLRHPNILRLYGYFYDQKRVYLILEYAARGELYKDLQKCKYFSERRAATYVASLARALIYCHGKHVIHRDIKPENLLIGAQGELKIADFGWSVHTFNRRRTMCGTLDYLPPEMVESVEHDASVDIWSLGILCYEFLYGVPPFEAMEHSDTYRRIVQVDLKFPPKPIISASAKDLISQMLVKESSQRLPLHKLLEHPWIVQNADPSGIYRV

Substance TPXL3-GFP (natural protein) registered a donor (GFP) fluorescence lifetime with AUR1-RFP of 1.9 ns. For TPXL2-GFP (natural protein) the value was 1.9 ns.

Values taken from article doi:10.1101/431791.
